The text below walks through data of patent publication US20140141037A1.

The experiment addresses RSV F uncleavable ectodomain (Delp21Furx, the ectodomain polypeptide) (respiratory syncytial virus). Briefly: Size exclusion chromatography of the mixture of RSV F monomer and HRA peptide; monomer alone ~75 mls, reference trimer (FP deletion) ~65 mls.

LEGEVNKIKSALLSTNKAVVSLSNGVSVLTSKVLDLKNYIDKQLLPIV [RSV F HRA peptide, RSV residues 160-207]: the Retention Volume Superdex P200 was determined as 60 mL.
